The text below walks through data of patent US20220144966A1 (SORRENTO THERAPEUTICS, published 2022).

Changes are numbered by the printed parent chain.

Assay [1] has as its target T1, recombinant mouse CD38/His-tag (Sino Biological, catalog #50191-M08H) (mouse, UniProt P56528 45-304).
T1 construct: Bought protein; also called murine CD38 protein; not shown: His-tag
T1 sequence: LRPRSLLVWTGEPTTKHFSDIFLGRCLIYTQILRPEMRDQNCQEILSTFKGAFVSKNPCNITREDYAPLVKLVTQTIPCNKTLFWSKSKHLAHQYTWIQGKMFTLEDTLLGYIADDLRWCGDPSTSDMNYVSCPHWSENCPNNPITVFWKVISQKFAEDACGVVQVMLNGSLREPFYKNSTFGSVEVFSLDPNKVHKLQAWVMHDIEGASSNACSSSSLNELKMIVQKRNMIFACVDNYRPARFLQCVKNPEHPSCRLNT
In words: ELISA, His-tagged CD38 captured on Ni-NTA plate, HRP anti-human Fc, OD 450 nm.

Assay [2] has as its target T2, recombinant cynomolgus CD38/His-tag (Sino Biological, catalog #90050-C08H) (cynomolgus monkey, UniProt Q5VAN0 44-300).
T2 construct: Bought protein; also called cynomolgus CD38 protein; not shown: His-tag
In words: ELISA, His-tagged CD38 captured on Ni-NTA plate, antibody about 1 µg/mL.

For assay [3], the target named is T3, cynomolgus CD38 on cynomolgus monkey T cells (cynomolgus monkey, UniProt Q5VAN0 1-300).
T3 construct: Native CD38 on peripheral blood lymphocytes from cynomolgus monkey blood, co-stained with anti-CD3 FITC; also called cynomolgus T cells
Put plainly: flow cytometry on cynomolgus peripheral blood lymphocytes co-stained with anti-CD3 FITC. On the technique in general: Flow cytometry measures light scatter and fluorescence of single cells or particles in a stream.

Assay [4] has as its target human CD38 on cells (Raji, Ramos, RPMI 8226, human T cells) (human, UniProt P28907 1-300). Put plainly: flow cytometry on non-activated or activated human T cells, 10, 1 or 0.1 µg/mL.

B1: parent antibody A2 (antibody, V domains shown)
VH: QVQLVESGGGLVKPGGSLRLSCAASGFTFSDDYMSWIRQAPGKGLEWVASVSNGRPTTYYADSVRGRFTISRDNAKNSLYLQMNSLRAEDTAVYYCAREDWGGEFTDWGRGTLVTVSS
VL: QAGLTQPPSASGTSGQRVTISCSGSSSNIGINFVYWYQHLPGTAPKLLIYKNNQRPSGVPDRFSGSKSGNSASLAISGLRSEDEADYYCAAWDDSLSGYVFGSGTKVTVL
notes: Only variable domains are tied to A2; also called A2-IgG1; anti-CD38-A2 parent antibody
Take B1: the binding result in assay [1] was “no binding (tested: about 1 µg/mL)”; in assay [2], “binds”; in assay [3], “binds”.

B2: variant antibody 3H10m1 (antibody, V domains shown)
VH: B1 VH with D100G, G102S, R110Q
VL: B1 VL with I31F, N32H
As for B2, in assay [3], the binding result was “binds”.

B3: variant antibody 3E10 (antibody, V domains shown)
VH: B1 VH
VL: B1 VL with I31F, N32H
notes: it was captured by anti-human Fc in SPR
As to B3, in assay [4], the binding result is “binds”.

B4: variant antibody 3G3 (antibody, V domains shown)
VH: B1 VH with D100A, G102S, R110Q
VL: B1 VL
As for B4, the binding result in assay [3] was “binds”.
